B1: CAP256V2LS (antibody, V domains shown)
VH: QVQLVESGGGVVQPGTSLRLSCAASQFRFDGYGMHWVRQAPGKGLEWVASISHDGIKKYHAEKVWGRFTISRDNSKNTLYLQMNSLRPEDTALYYCAKDLREDECEEWWSDYYDFGAQLPCAKSRGGLVGIADNWGQGTMVTVSS
VL: QSVLTQPPSVSAAPGQKVTISCSGNTSNIGNNFVSWYQQRPGRAPQLLIYETDKRPSGIPDRFSASKSGTSGTLAITGLQTGDEADYYCATWAASLSSARVFGTGTQVIVLG
B2: J3 nanobody (VHH)
VHH: EVQLVESGGGLVQAGGFLRLSCELRGSIFNQYAMAWFRQAPGKEREFVAGMGAVPHYGEFVKGRFTISRDNAKSTVYLQMSSLKPEDTAIYFCARSKSTYISYNSNGYDYWGRGTQVTVSS

Tests used:
[1] = target: K169V variant of CAP256 soluble Env trimer (HIV-1); test: ELISA, lectin-captured trimer, expression supernatant, single point, OD 450 nm
[2] = target: JRFL soluble Env trimer (clade B), stabilized in the prefusion-closed conformation (HIV-1); test: as above
[3] = target: CAP256 soluble Env trimer (clade C), stabilized in the prefusion-closed conformation (HIV-1); test: as above
[4] = target: BG505 DS-SOSIP.664 Env trimer (HIV-1); test: ITC, 37 C, PBS pH 7.4, antibody titrated into trimer
[5] = target: 426C-WITO soluble Env trimer (clade B), stabilized in the prefusion-closed conformation (HIV-1); test: ELISA, lectin-captured trimer, expression supernatant, single point, OD 450 nm, column 426c-WITO-degly3
[6] = target: BG505 DS-SOSIP.664 Env trimer (HIV-1); test: ITC, 37 C, PBS pH 7.4, nanobody titrated into trimer

Binder	ELISA binding [1]	ELISA binding [2]	ELISA binding [3]	-TΔS [4]	Kd [4]	N (stoichiometry) (Antigen Binding Sites per Trimer) [4]	ΔG [4]	ΔH [4]	ELISA binding [5]	-TΔS [6]	Kd [6]	N (stoichiometry) (Antigen Binding Sites per Trimer) [6]	ΔG [6]	ΔH [6]
B1	2.42	0.361	2.16	15 kcal/mol	34 nM	1	-10.6 kcal/mol	-25.6 kcal/mol	0.382	–	–	–	–	–
B2	–	–	–	–	–	–	–	–	–	1.4 kcal/mol	92 nM	3.1	-10 kcal/mol	-11.4 kcal/mol
